Read-outs that look alike come from different tables or passages of the source.
How the values were obtained:
[1] = human, in vivo; cited from earlier work
[2] = system: adult subjects with overweight/obesity; conditions: in vivo
Procedure: (§1) This single center, open, multiple ascending dose study was conducted at the Phase I Clinical Research Center of the Affiliated Hospital of Qingdao University, Qingdao, China. […] The duration of each dose was 0.06 mg for three consecutive days, 0.1 mg for three consecutive days, 0.14 mg for five consecutive days, and 0.2 mg for five consecutive days (Figure 1). All volunteers were hospitalized 2 days before the first dosing and placed on a standardized diet during hospitalization. All participants were required to fast overnight before the first dosing.
(§2) Safety assessments were conducted by monitoring physical examinations, vital signs (blood pressure, pulse rate, body temperature and respiratory rate), 12-lead ECG, clinical laboratory assays (blood routine, blood biochemistry and urine routine) and AEs. AEs were evaluated by the investigator throughout the study and the severity of AEs was defined in accordance with the Common Terminology Criteria for the Classification of Adverse Events of the National Cancer Institute (NCI CTCAE) version 5.0.

[3] = in vivo
Procedure: The duration of each dose was 0.06 mg for three consecutive days, 0.1 mg for three consecutive days, 0.14 mg for five consecutive days, and 0.2 mg for five consecutive days (Figure 1).
Blood samples (3 mL) were collected in vacuum tubes containing EDTA-K2 at D-1 and at pre-dosing (0 h) and 5, 10, 15, 20, 25, 30, 40, 50, 60, 90, 120, 150 and 180 min after first administration on D6, D7, D11, D12, and D16. PK blood samples were collected at the time point corresponding to the administration date for blank baseline correction on D-1. The vacuum tubes were pre-cooled in the refrigerator (2°C–8°C) for at least 0.5–1 h before use. As the stabilizer, 30 μL DPP IV inhibitor (10 μL/mL) was immediately added into the blood. The stabilizer-spiked blood samples were kept with wet ice during transportation and were centrifuged at 3,000 rpm for 10 min at 4°C to separate the plasma. Samples were stored at −80°C until analysis.
The standard curve ranged from 2.0 to 100.0 pM. The accuracy of intra-batch and inter-batch assays values were −16.7%–20.0% and −6.7%–3.2%, respectively.
The primary PK parameters were maximum observed concentration (Cmax), the area under concentration-time curve from 0 to the last measurable concentration (AUC0-t) and AUC0-inf, whereas the secondary PK parameters were median time to reach maximum concentration (Tmax), terminal half-life time (t1/2), Vz/F, apparent clearance rate (CL/F), terminal elimination rate (λz) and accumulation index (Rac).
Paired t-tests were used to compare the primary PK parameters between the 0.14 mg and 0.2 mg dose groups. Three doses (0.1, 0.14 and 0.2 mg) were evaluated for proportional dose-response relationships using power model. […] Statistical analysis was performed using SAS 9.4 (SAS Institute, Cary, NC, United States).

[4] = system: adult subjects with overweight/obesity; assay: Safety assessment (adverse events, NCI CTCAE 5.0), phase I multiple ascending dose trial; conditions: N = 16
Procedure: as §1, §2

[5] = parameters: method as in Chen et al., 2024; conditions: week 16, ref Chen et al., 2024, cited from earlier work
[6] = Total, 0.06-0.2 mg sc three times daily

For “recombinant human GLP-1 (7-36) [beinaglutide]”, the “apparent volume of distribution (Vz/F)” value [1] is listed as 379 L, the “time to relief of nausea” value [2] is listed as ≤ 1 h and the “Estimate of slope β1, Ln (AUC0-inf), proportional dose-response (power model)” value [3] is listed as 1.01. The “Estimate of slope β1, Ln (AUC0-t,adj), proportional dose-response (power model)” value [3] was 1.13, the “Estimate of slope β1, Ln (Cmax), proportional dose-response (power model)” value [3] was 1.13 and the “arithmetic mean of CL/Fadj” value ([3]; sc) was 6.81 to 7.66 L/min. For the same substance, the “arithmetic mean of Vz/Fadj” value ([3]; sc) was 292.55 to 401.87 L, the “arithmetic mean of t1/2, adj” value ([3]; sc) was 29.64 to 42.35 min and the “median of Tmax” value ([3]; sc) was 10 to 15 min. The “median of Tmax,adj” value ([3]; sc) was 10 to 15 min, the “AEs leading to death, % of subjects with event” value ([4]; 0.06 mg sc three times daily) was 0.0% and the “AEs leading to death, E (number of events)” value ([4]; 0.06 mg sc three times daily) was 0. The “AEs leading to death, n (subjects with event)” value ([4]; 0.06 mg sc three times daily) was 0, the “Drug-related AEs leading to death, % of subjects with event” value (“Drug-related AEs leading to death, %” below) ([4]; 0.06 mg sc three times daily) was 0.0% and the “Drug-related AEs leading to death, E (number of events)” value (from here on “Drug-related AEs leading to death, E”) ([4]; 0.06 mg sc three times daily) was 0. The “Drug-related AEs leading to death, n (subjects with event)” value (shortened to “Drug-related AEs leading to death, n”) ([4]; 0.06 mg sc three times daily) was 0, the “AEs leading to death, % of subjects with event” value ([4]; 0.1 mg sc three times daily) was 0.0% and the “AEs leading to death, E (number of events)” value ([4]; 0.1 mg sc three times daily) was 0. The “AEs leading to death, n (subjects with event)” value ([4]; 0.1 mg sc three times daily) was 0, the “Drug-related AEs leading to death, %” value ([4]; 0.1 mg sc three times daily) was 0.0% and the “Drug-related AEs leading to death, E” value ([4]; 0.1 mg sc three times daily) was 0. For the same substance, the “Drug-related AEs leading to death, n” value ([4]; 0.1 mg sc three times daily) was 0, the “AEs leading to death, % of subjects with event” value ([4]; 0.14 mg sc three times daily) was 0.0% and the “AEs leading to death, E (number of events)” value ([4]; 0.14 mg sc three times daily) was 0. For the same substance, the “AEs leading to death, n (subjects with event)” value ([4]; 0.14 mg sc three times daily) was 0, the “Drug-related AEs leading to death, %” value ([4]; 0.14 mg sc three times daily) was 0.0% and the “Drug-related AEs leading to death, E” value ([4]; 0.14 mg sc three times daily) was 0. The “Drug-related AEs leading to death, n” value ([4]; 0.14 mg sc three times daily) was 0, the “AEs leading to death, % of subjects with event” value ([4]; 0.2 mg sc three times daily) was 0.0% and the “AEs leading to death, E (number of events)” value ([4]; 0.2 mg sc three times daily) was 0. The “AEs leading to death, n (subjects with event)” value ([4]; 0.2 mg sc three times daily) was 0, the “Drug-related AEs leading to death, %” value ([4]; 0.2 mg sc three times daily) was 0.0% and the “Drug-related AEs leading to death, E” value ([4]; 0.2 mg sc three times daily) was 0. For the same substance, the “Drug-related AEs leading to death, n” value ([4]; 0.2 mg sc three times daily) was 0, the “AEs leading to death, % of subjects with event” value [4, 6] was 0.0% and the “AEs leading to death, E (number of events)” value [4, 6] was 0. For the same substance, the “AEs leading to death, n (subjects with event)” value [4, 6] was 0, the “Drug-related AEs leading to death, %” value [4, 6] was 0.0% and the “Drug-related AEs leading to death, E” value [4, 6] was 0. The “Drug-related AEs leading to death, n” value [4, 6] was 0, the mean weight reduction ([5]; female participants) was −6.9% and the mean weight reduction ([5]; male participants) was −4.7%.

From article PMC11375898 (Frontiers in Pharmacology, 2024)
